Values quoted from earlier work as cited in US20240307501A1 (priority 2021, published 2024).

Settings: chronic doses of glucagon, patients with CHI, across 2 studies

## Glucagon: native glucagon used off-label by IV or continuous SC infusion for CHI
  patients with erythema necrolyticum: 4 out of 11
